Measured values: patent US10568344B2, “Methods of improving animal performance” (Novozymes A/S, priority 2015, dated 2020)
Marks after values point to notes of the source that are not given here.

Assays:
[1] = In vivo broiler trial 1, growth performance; parameters: species or system male broiler chickens (ROSS PM3); conditions: for Feed intake / Feed intake, Relative to C (%) / Weight gain / Weight gain, Relative to C (%) / FCR / FCR, Relative to C (%): Whole period (d 1-36)
[2] = tested on: Exiguobacterium undae (DSM14481); test: Lysozyme activity turbidity assay (optical density drop); type: biochemical; conditions: pH 5
[3] = In vivo piglet trial, growth performance; parameters: species or system weaned piglets
Experimental: The trial was performed from Oct. 23 to Dec. 4, 2014 at the Research Center for Animal Nutrition (DSM Nutritional Products France, F-68305 Village-Neuf) according to the official French guidelines for experiments with live animals. One hundred and four castrated male crossbred (Large-White (female)×Redon (male)) weaned piglets having 28 days of age supplied by the commercial farm “[…] du Rhin” located in Balgau (France), were used in a 42-day experiment. The initial bodyweight of the piglets was 7.88±0.675 kg. They were sorted by body weight into 32 groups of 3 or 4 piglets and randomly allotted to each dietary treatment. Each group of animals was placed in one flat-deck cages and allocated to one of the different treatments. Each treatment was replicated with 8 cages using a total of 26 animals (6 cages of 3 animals/treatment and 2 cages of 4 animals/treatment) per treatment. […] Animals were housed in an environmentally controlled room. Room temperature was initially 27° C. and was lowered weekly by about 2° C. until 21-22° C. and relative humidity percentage was 50%. The experimental diets (Pre-Starter and Starter) were fed ad libitum in two feeding phases from day 0 to 14 (phase 1, Pre-starter) and day 14 to 42 (phase 2, Starter). The ingredient composition and the calculated nutrient levels of the experimental diets for phases 1 and 2 are presented in table 11. Both diets were formulated to meet the animals' requirements according NRC (2012) and were fed in pelleted form. Pelleting conditions were at 70° C. for 30 seconds. […] No additional enzymes (e.g. phytase) were added to the feed. […] Appropriate amount of the liquid preparations of lysozyme was diluted in water and sprayed onto the respective pelleted feed to get the final concentrations in the feed corresponding to the different treatments. For procedural balance of all treatments the same volume of water were also sprayed onto the pellets of the control diets. Body weight of the individual animals and feed consumption per pen were recorded on days 14 and 42 of the study. […] The experimental unit was the piglet, except for ADFI and FCR which were measured by cage, and in both cases, treatment was used as class variable. One-factorial ANOVA and Student-Newman-Keuls test was used to assess differences among means in treatment groups.

B1: SEQ ID NO: 1: mature amino acid sequence of a wild type GH25 lysozyme from Acremonium alcalophilum with N-terminal SPIRR (protein)
chain: SPIRRRIPGFDISGWQPTTDFARAYANGDRFVYIKATEGTTFKSSAFSRQYTGATQNGFIRGAYHFAQPAASSGAAQARYFASNGGGWSKDGITLPGALDIEYNPNGATCYGLSQSAMVNWIEDFVTTYHGITSRWPVIYTTTDWWTQCTGNSNRFANRCPLWIARYASSVGTLPNGWGFYTFWQYNDKYPQGGDSNWFNGDASRLRALANGD
modifications: Wild type sequence with N-terminal SPIRR
Feed intake ([1]; 25 mg/kg feed): 4991^ab g/b
Feed intake, Relative to C (%) ([1]; 25 mg/kg feed): 98.9%
Weight gain ([1]; 25 mg/kg feed): 2908 g/b
Weight gain, Relative to C (%) ([1]; 25 mg/kg feed): 101.6%
FCR ([1]; 50 mg/kg feed): 1.727^b
FCR, Relative to C (%) ([1]; 50 mg/kg feed): 97.9%
Feed intake ([1]; 50 mg/kg feed): 4920^ab g/b
Feed intake, Relative to C (%) ([1]; 50 mg/kg feed): 97.5%
Weight gain ([1]; 50 mg/kg feed): 2849 g/b
Weight gain, Relative to C (%) ([1]; 50 mg/kg feed): 99.6%
FCR ([1]; 100 mg/kg feed): 1.686^c
FCR, Relative to C (%) ([1]; 100 mg/kg feed): 95.6%
Feed intake ([1]; 100 mg/kg feed): 4815^b g/b
Feed intake, Relative to C (%) ([1]; 100 mg/kg feed): 95.4%
Weight gain ([1]; 100 mg/kg feed): 2856 g/b
Weight gain, Relative to C (%) ([1]; 100 mg/kg feed): 99.8%
FCR ([1]; 200 mg/kg feed): 1.722^b
FCR, Relative to C (%) ([1]; 200 mg/kg feed): 97.6%
Feed intake ([1]; 200 mg/kg feed): 4877^ab g/b
Feed intake, Relative to C (%) ([1]; 200 mg/kg feed): 96.6%
Weight gain ([1]; 200 mg/kg feed): 2832 g/b
Weight gain, Relative to C (%) ([1]; 200 mg/kg feed): 99%
Improvement of weight gain compared to the control diet ([1]; day 1 to day 36, 25 mg/kg): 1.6%
Improvement of FCR compared to the control diet ([1]; starter period, 25 mg/kg): 2.0%
Improvement of weight gain compared to the control diet ([1]; starter period, 25 mg/kg): 1.3%
Improvement of FCR compared to the control diet ([1]; starter period, 100 mg/kg): 5.1%
Improvement of weight gain compared to the control diet ([1]; starter period, 100 mg/kg): 2.4%
Improvement of FCR compared to the control diet ([1]; starter period, 200 mg/kg): 6.6%
Improvement of weight gain compared to the control diet ([1]; starter period, 200 mg/kg): 4.2%
Lysozyme activity as measured by Optical Density Drop [2]: + (pH 5)
ADFI, % relative NC ([3]; day 0-14, 50 ppm): 90.0%
ADFI, Mean ([3]; day 0-14, 50 ppm): 324 g/day
ADWG, % relative NC ([3]; day 0-14, 50 ppm): 96.2%
ADWG, Mean ([3]; day 0-14, 50 ppm): 279 g/day
FCR, % relative NC ([3]; day 0-14, 50 ppm): 94.4%
FCR, Mean ([3]; day 0-14, 50 ppm): 1.170^a
ADFI, % relative NC ([3]; day 0-42, 50 ppm): 93.1%
ADFI, Mean ([3]; day 0-42, 50 ppm): 683^a g/d
ADWG, % relative NC ([3]; day 0-42, 50 ppm): 102.4%
ADWG, Mean ([3]; day 0-42, 50 ppm): 511 g/day
EPEF, % relative NC ([3]; day 0-42, 50 ppm): 113.0%
EPEF, Mean ([3]; day 0-42, 50 ppm): 383
FCR, % relative NC ([3]; day 0-42, 50 ppm): 90.4%
FCR, Mean ([3]; day 0-42, 50 ppm): 1.341^a
ADFI, % relative NC ([3]; day 14-42, 50 ppm): 92.7%
ADFI, Mean ([3]; day 14-42, 50 ppm): 862^a g/d
ADWG, % relative NC ([3]; day 14-42, 50 ppm): 104.0%
ADWG, Mean ([3]; day 14-42, 50 ppm): 627 g/day
FCR, % relative NC ([3]; day 14-42, 50 ppm): 89.3%
FCR, Mean ([3]; day 14-42, 50 ppm): 1.379^a
Improvement on FCR compared to the negative control ([3]; overall period (day 0 to day 42), 50 mg/kg): 9.6%
Improvement to FCR compared to NC ([3]; starter period, day 15 to day 42, 50 mg/kg): 11.3%
Improvement of ADWG compared to the negative control diet ([3]; starter period, 50 mg/kg): 4.0%
EPEF improvement compared to the negative control ([3]; whole period, 50 mg/kg): 13.0%
Improvement of ADWG compared to the negative control diet ([3]; whole period, 50 mg/kg): 2.4%
